Data set [1] relates to Flag-tagged rtPDE3B containing its full ORF.
The test system of data set [2] is Flag-tagged rtPDE3B-137 (full ORF) S421A.
Data set [3] concerns Flag-tagged rtPDE3B-137 (full ORF) S421D.

For the substance PK-A (cAMP-dependent protein kinase), the “stimulation of cGMP hydrolytic activity by PK-A (0.03 µM cGMP, with or without PK-A and ATP)” value in data set [1], in data set [2] and in data set [3] was “caused a much greater stimulation of activity in S421D than in S421A or the wild-type rtPDE3B” throughout.
